From patent publication EP1847600A1, “Specific protease for inactivation of human tumour necrosis factor-alpha” (Direvo Biotech AG, priority 2006, dated 2007)

B1: pegylated variant G: variant G pegylated with 20 kD methoxy-poly(ethyleneglycol) derivative on lysine residues (conjugate)
chain: IVGGYDCEENSVPYHVSLNSDSNSTTICGGALINEQWVVTAGHCYSFLPLDKSRIQVRLGVHSTGALEGNEQIINAAKIIRHPQYDWKTLNNDIMLIKLSSPAVINAHVSTISLPTAPPATGTKCLISGWGNSKDPYKPSSGPSTADYPGEVQCLDAPVLSQTKCEASYPGKITSNMFCAGFLEGGKDSCQGDSGGPVVHNGQLQGVVSWGEGCAQKNKPGVYTNVYNYVEWIQDTIAANS
B2: pegylated variant E: Variant E modified by chemical attachment of 20 kDa poly(ethyleneglycol) (conjugate)
chain: IVGGYDCEENSVPYHVSLNSGSNSTTICGGALINEQWVVTAGHCYAFFPADKSRIQVRLGVHSTGALEGNEQIINAAKIIRHPQYDWKTLNNDIMLIKLSSPAVINAHVSTISLPTAPPATGTKCLISGWGNSKDPYKPSSRADYPGEVQCLDAPVLSQTKCEASYPGKITSNMFCAGFLEGGKDSCQGDSGGPVVHNGQLQGVVSWGEGCAQKNKPGVYTNVYNYVEWIQDTIAANS

What was measured:
transmembrane TNF-alpha = target: T1, transmembrane TNF-alpha (Homo sapiens, UniProt P01375, DEL77-88); assay: Membrane-bound TNF-alpha assay: cell line expressing non-cleavable TNF plus reporter cells, apoptosis read-out; format: cell-based; details: incubation at different concentrations for 4 h, then reporter cell line added
T1 construct: The transmembrane TNF induces apoptosis in these TNF-susceptible cells; expressed in transfected cells
T1 sequence (P01375 with tags, fused parts or gaps DEL77-88): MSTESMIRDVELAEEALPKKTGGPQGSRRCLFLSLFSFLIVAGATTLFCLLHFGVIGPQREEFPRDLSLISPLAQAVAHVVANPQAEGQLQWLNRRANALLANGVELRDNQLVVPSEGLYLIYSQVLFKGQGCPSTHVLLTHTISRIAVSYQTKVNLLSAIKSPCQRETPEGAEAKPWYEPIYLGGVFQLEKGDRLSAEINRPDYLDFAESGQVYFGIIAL

[1] = test system: human TNF-alpha transgenic mouse model of arthritis; assay: Efficacy in human TNF-alpha transgenic mouse model of arthritis (Tg197); format: in vivo; details: Tg197 mice, six weeks old, established disease; 50 mg/kg intraperitoneally three times per week for five weeks
Protocol: (§1) • Figure 1: Mass spectrometric verification of the proteolytic cleavage site of TNF-alpha. TNF-alpha was digested at a concentration of 1 mg/ml with protease variant E for 1 h at 37 °C in PBS buffer. The short fragment of the cleavage reaction was isolated on a C18-reversed phase HPLC-column and the collected fraction electrosprayed into the orifice of the ion-trap mass spectrometer. • Figure 2: Deconvoluted mass spectrometric analysis. The small cleavage product has been isolated and the determined mass represents the first 32 amino acids of SEQ ID NO: 11, confirming the targeted cleavage site. • Figure 3: Inactivation of recombinant human TNF-alpha activity by a panel of variants in a cell-based caspase assay. […] Detection of hTNFα-induced caspase activation was measured by a luminescence based read-out. […] (A) depicts maximal detected inactivation of hTNFα; (B) depicts dose dependency of the effects of the hTNFα specific protease. • Figure 4: Effect of pegylation on activity. […] The activity of the resulting pegylated protease was assessed against a recombinant hTNFα (A) or by a caspase assay that measures levels of remaining TNF-alpha activity following digestion of the cytokine by the protease (B). […] Cleavage is assessed by following the changes in the fluorescent signal. […] Efficacy was determined by using a standard clinical scoring system for ankle joint inflammation. […]

synthetic peptide = assay: Activity assay of pegylated versus non-pegylated protease against a synthetic peptide (Fig. 4A); format: biochemical; details: 20 kDa PEG; synthetic peptide / recombinant hTNFα
Protocol: as §1

hTNFα = hTNFα (Homo sapiens, UniProt P01375); assay: TNF-alpha dependent cell-based caspase assay (Caspase-Glo 3/7) on WEHI 13VAR cells; design: species or system mouse; details: 20 kDa PEG, protease 50 and 100 µg/ml, hTNFα 1 ng/ml, 4 h, 37 °C
Chain of hTNFα (P01375 77-233 limits assumed): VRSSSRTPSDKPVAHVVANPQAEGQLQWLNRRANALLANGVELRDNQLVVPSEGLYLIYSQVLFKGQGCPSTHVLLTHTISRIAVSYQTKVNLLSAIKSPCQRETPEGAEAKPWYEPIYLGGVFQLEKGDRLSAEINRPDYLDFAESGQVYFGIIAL
Protocol: as §1

Molecule | inactivation of transmembrane TNF-alpha (inhibition of apoptosis of reporter cells) (transmembrane TNF-alpha) | clinical score for ankle joint inflammation (arthritis score 0 to 3) [1] | activity of pegylated protease compared with non-pegylated variant (Fig. 4A) (synthetic peptide) | remaining TNF-alpha activity after digestion, pegylated compared with non-pegylated variant (Fig. 4B) (hTNFα)
B1 | do not inhibit apoptosis | – | – | –
B2 | – | Efficacy of pegylated TNF-alpha specific protease variant E is demonstrated | slight reduction in specific activity | slight reduction in specific activity
